Measured values taken from the supplement of paper PMC12764529.
± gives the half width of the 95% confidence interval.

Columns and labels:
[1] = folding stability dG unfold from trypsin proteolysis; higher = more stable
In short: (§1)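 Mini-proteins designed to be under 80 residues and free of cysteine were carried in a PA-tagged cDNA display construct and digested with trypsin and with chymotrypsin. Each protease was applied at 11 threefold-diluted concentrations, alongside a no-protease condition, before sequencing. K50 came from Bayesian fitting of the sequencing counts, and unfolding free energy was obtained by comparing it with a sequence-predicted unfolded-state K50 and a shared folded-state K50, for each protease separately or for both together. Designs were retained only if their AlphaFold2 dimer inter-PAE exceeded 15.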

[2] = folding stability dG unfold from chymotrypsin proteolysis; higher = more stable
In short: as §1

[3] = folding stability dG unfold (combined trypsin and chymotrypsin); higher = more stable
In short: as §1

Sequence | folding stability dG unfold [1] | folding stability dG unfold [2] | folding stability dG unfold [3]
SAGGSAGGSMTVTYTEVGDQLVVTTPDGRRYVITLSGDVTYDPATGTVTVPPGETMTPVPVPASAGGSAGGS [r20_158_JUSTAS] | 1.61 ± 0.021 kcal/mol | 2.13 ± 0.025 kcal/mol | 1.99 ± 0.039 kcal/mol
SPGWYKVDIEIPMKEIQEEFGDPDKPITADRIKERVKKIAETIGFEVRDVEIEMDPNGWVRVTVTIPVKNSA [r9_52_TrROS] | 3.77 ± 0.3 kcal/mol | 3.89 ± 0.11 kcal/mol | 3.64 ± 0.19 kcal/mol
SAGGSAGGSAGGSKIYKLKVNGSVEKLIENLKKAGFKVEILSVYYDPETKELYVLFKISSAGGSAGGSAGGS [r4_315_TrMRF] | 3.85 ± 0.1 kcal/mol | 4.57 ± 0.068 kcal/mol | 4.32 ± 0.079 kcal/mol
SAGGKKHYLVKVKATLTDKNGKKIAEVEFIFHFESPEELEEALKSIPSKYITEVKILSIEEIPEEEFSAGGS [r16_677_TrMRF] | 3.36 ± 0.18 kcal/mol | 3.65 ± 0.091 kcal/mol | 3.55 ± 0.18 kcal/mol
NIRITDIEMYPFPNNNQPQMEFTLEWPNGPRRTVEFELPGQEMEVYVDPKKGEIWFYFPNNGMFMKITIEPS [r1_125_TrROS] | 1.37 ± 0.068 kcal/mol | 2.97 ± 0.1 kcal/mol | 2.63 ± 0.35 kcal/mol
SAGGMKVDPKTNITTIEFPSSNLPELKEAIEKTGEKPVVVILKDPNSDREVRITLTKEEALKYLEKKSAGGS [r16_797_JUSTAS] | 0.209 ± 0.14 kcal/mol | 0.71 ± 0.1 kcal/mol | 0.565 ± 0.18 kcal/mol
SAGGSAGGSAGTITINGKPITIEKLDNGYYKVKVNGKWYEIKPGEKIELPKGATVSIEKVSAGGSAGGSAGG [r11_147_TrROS_Hall] | 1.21 ± 0.069 kcal/mol | 2.6 ± 0.035 kcal/mol | 2.27 ± 0.14 kcal/mol
SAGGSAGGSGLEILEEREAVFPLHGLVVKREVVVRSPDGVPLVFVEVEAHPELLPLVERLFERSAGGSAGGS [r12_457_TrMRF] | 0.212 ± 0.054 kcal/mol | -0.0155 ± 0.13 kcal/mol | 0.138 ± 0.099 kcal/mol
SAGGSAGGGRAEILVEPVEPEPRARVVIRLEGSGRLVVFPVEEPLEPEHVEEAVEAAIKALEENSAGGSAGG [r6_330_TrMRF] | -0.26 ± 0.17 kcal/mol | 0.647 ± 0.013 kcal/mol | 0.393 ± 0.065 kcal/mol
SAGGSAGGSAGPVPKTITVTVSSPEEAEAAVKEIKPKYPNVKVERKKVGDKIVLTITVEESAGGSAGGSAGG [r17_319_JUSTAS] | 1.86 ± 0.11 kcal/mol | 1.88 ± 0.093 kcal/mol | 1.75 ± 0.16 kcal/mol
SAGGSAGGKKKKKPPKKKYFYVEIEIELTPEEIEKLKELFPDVKVEVEEKDGKLRVRITVRVKLSAGGSAGG [r6_685_TrROS_Hall] | 2.79 ± 0.16 kcal/mol | 3.48 ± 0.05 kcal/mol | 3.26 ± 0.087 kcal/mol
SAGGSAGGSLRLRVTFTVTVTFLDGNRLRPAKVEITVEIELEPIPPELLRPRPLPGDKLEYDLSAGGSAGGS [r12_1031_TrMRF] | 2.72 ± 0.17 kcal/mol | 3.29 ± 0.045 kcal/mol | 3.16 ± 0.25 kcal/mol
SAPSPSVPLDPVTTETVLVKDPEKGEEITLEILTDANSDEVLVRITYPDGSEVVLRLKKEEVEKVIEALSAG [r14_240_JUSTAS] | 4 ± 0.37 kcal/mol | 3.08 ± 0.11 kcal/mol | 3.41 ± 0.12 kcal/mol
SAGGSAGGSAGDENEKPKPKMQMKMIQIKFPPEDLPELAEEFGIDSVHIMPNGSLFIMVYSAGGSAGGSAGG [r11_64_TrROS] | 1.07 ± 0.11 kcal/mol | 1.48 ± 0.1 kcal/mol | 1.36 ± 0.18 kcal/mol
SAGGSMSLEGVSTVSEEKFPEKPTTLVPLTYPDGTTVEANRTLDPVTGKWTLPVTTPDGTVVVVDESAGGSA [r2_490_JUSTAS] | 1.34 ± 0.048 kcal/mol | 0.487 ± 0.073 kcal/mol | 0.977 ± 0.089 kcal/mol
SAGGSAKMKITVEKNEDGELYVLIEVDSVEELEEALKKLPGIEKVEVEVFVDEETKRVYILVRVKPSAGGSA [r15_344_TrROS_Hall] | 2.36 ± 0.071 kcal/mol | 3.62 ± 0.045 kcal/mol | 3.26 ± 0.064 kcal/mol
SAGGSAGGSAGMKVTIEENEETGKFTIKVKTEDGEEKTIEIPKENLEEILAKLPPNVEIISAGGSAGGSAGG [r11_569_TrROS_Hall] | 2.52 ± 0.11 kcal/mol | 1.92 ± 0.036 kcal/mol | 2.14 ± 0.17 kcal/mol
SAGGVLPSDPVTVTVTIPVPAANAETDGRLPPQPQTINLEIGGPSEEAIRALLEALFPPGTEYEILLSAGGS [r16_282_JUSTAS] | 1.77 ± 0.064 kcal/mol | 0.691 ± 0.034 kcal/mol | 1.32 ± 0.06 kcal/mol
SAGGSAGGSAGMEYSIDKASGKILIKIPDEDKTWILYDPKTGEKYIFKQIGGKWYKVEKVSAGGSAGGSAGG [r11_1036_TrMRF] | 1.57 ± 0.058 kcal/mol | 1.87 ± 0.14 kcal/mol | 1.91 ± 0.26 kcal/mol
SAGGSAGGSAKVYVNPDNNKVAVVLPPPGDSYLVLLFDPETGEVRLIEAPPEEVEELLKKGSAGGSAGGSAG [r3_162_TrMRF] | 0.618 ± 0.077 kcal/mol | 1.25 ± 0.097 kcal/mol | 0.845 ± 0.14 kcal/mol
SGFTFSTLIAPDESLSITVKEPNSSTTTSFDFTVDPATGAVSATATTTPPDGKTQTFSVTIPVSPGAAALSA [r9_770_JUSTAS] | 1.02 ± 0.08 kcal/mol | 0.924 ± 0.18 kcal/mol | 0.973 ± 0.11 kcal/mol

Sequence | folding stability dG unfold [1] | folding stability dG unfold [2] | folding stability dG unfold [3]
SAGGSAGGSAGGEPEVKVELRVELDEDGRLRVTLKVEFEDGTVERELELEAPVVFFPPEESAGGSAGGSAGG [r7_992_TrROS_Hall] | 2.73 ± 0.18 kcal/mol | 2.07 ± 0.093 kcal/mol | 2.49 ± 0.16 kcal/mol
SAGGMKTIEITIKTEDGYTIKIKITEKDGKLYIEIEIEDPNMSEEQREKIKKEIEELAKKLNIKVEIPSAGG [r13_774_TrROS_Hall] | 3.48 ± 0.31 kcal/mol | 2.8 ± 0.27 kcal/mol | 3.14 ± 0.42 kcal/mol
SAGGSAGGSSPEENLETQVETELLEEFKPGDKPRKLVKTTVTYPDGTTKEEIVTIDENGNILLSAGGSAGGS [r12_755_JUSTAS] | -0.206 ± 0.049 kcal/mol | -0.117 ± 0.065 kcal/mol | -0.0945 ± 0.1 kcal/mol
SAGKKIDPEALAKRILKEFGLPEDAEVEVEEIENTYIARFPEATALFTIEDDEVTVFLAPARPEPELAGSAG [r5_190_TrMRF] | 0.984 ± 0.11 kcal/mol | 0.598 ± 0.18 kcal/mol | 0.881 ± 0.18 kcal/mol
SAGGSPVVLTKSPDGLLYVVTLTDPANSLDRVKAKVTAYDPNKPVPLGELTIELDPKTGKAVSALSSAGGSA [r2_324_JUSTAS] | -0.543 ± 0.097 kcal/mol | 0.488 ± 0.089 kcal/mol | 0.21 ± 0.093 kcal/mol
KKKIKKIEIEIKIPVKSIEEAKEEVEKLAKELKEKFPEIKKIKVEIIKYDEKKGYITVKITIEVNGKKIEFS [r1_52_TrROS_Hall] | 1.56 ± 0.2 kcal/mol | 1.24 ± 0.13 kcal/mol | 1.52 ± 0.28 kcal/mol
DVVIDIDELKKAIEKAKPGEVLELTVKVKDKATGKEYTVRVTVTVNPDGKTVTVTVVNEETGEVIETITLPS [r1_165_TrROS_Hall] | 3.94 ± 0.21 kcal/mol | 5.23 ± 0.22 kcal/mol | > 6 kcal/mol
SAGGSAGGSPDVVVPATLTFPLDAVAKAEFYPDGTVKVTFPDNTVALAKVEGGVVTDVRLAPASAGGSAGGS [r12_749_TrMRF] | 0.0343 ± 0.031 kcal/mol | 0.0478 ± 0.066 kcal/mol | 0.11 ± 0.095 kcal/mol
SAGGMKTVNLTYTRYLPDKTLEEAKELAKKDLESRGLKILSLPVSREPGAGVVTVSATVEVAPPSLLSAGGS [r16_287_JUSTAS] | 3.67 ± 0.12 kcal/mol | 3.99 ± 0.1 kcal/mol | 3.82 ± 0.27 kcal/mol
SAGSSSVTLFPEYTITTTTLPDGSRSVTINFTNPEEAKKLFEENPEIKELIEKFKKEGWDVKINAKNPSSAG [r14_873_JUSTAS] | 2.98 ± 0.21 kcal/mol | 3.95 ± 0.17 kcal/mol | 3.67 ± 0.22 kcal/mol
SAGGMYVEVVIDNPDPDISPEELAEEVARELAPDPFEIKPVKIEPELIGGIPKVTILFEVDDPEAVEESAGG [r13_979_TrMRF] | 0.238 ± 0.049 kcal/mol | 0.958 ± 0.019 kcal/mol | 0.763 ± 0.056 kcal/mol
SAGGSAGGSATIWIPVSQIEEFLKQMPPDRIKEVKITYDPEDGWIPVKIPGGREIMIWVPKSAGGSAGGSAG [r3_291_TrROS] | 1.15 ± 0.029 kcal/mol | 0.83 ± 0.054 kcal/mol | 1.06 ± 0.076 kcal/mol
SAGGMEPPPMLLLVIEIENEDGEKLRIVVPLEDLEEVLKALGLSKEEVRIKKIEVVPLTDEQLKELLESAGG [r13_850_TrROS_Hall] | 3.43 ± 0.35 kcal/mol | 3.57 ± 0.25 kcal/mol | 3.32 ± 0.28 kcal/mol
SAGGEVKPGEEVEVEVLVLVRGEDGELYLVRVKMRFRVKEDGTVEMEVEVEVVRVPLSEEELKALLEASAGG [r13_544_TrROS_Hall] | 4.43 ± 0.14 kcal/mol | 5.99 ± 0.26 kcal/mol | > 6 kcal/mol
SAGGPKPGEKWIARTKEGLVPITLEGDKVTITDALTGKKTVIPIPGASLEEIKELLLSEPDYEVYPESAGGS [r16_583_JUSTAS] | -0.603 ± 0.37 kcal/mol | -0.737 ± 0.32 kcal/mol | -0.404 ± 0.19 kcal/mol
SAGDAEEIAKKIEEAAREEFAARLGYPDLEILKVEVLEVDPVTGRVRVRVTVRLPDGRLLEAEFEVPVASAG [r5_20_TrMRF] | 3.83 ± 0.06 kcal/mol | 3.41 ± 0.06 kcal/mol | 3.65 ± 0.065 kcal/mol
SAGGTIFIPWEEAEEFIENAFENGEDIEIEFFLDDGWWYKFTITGPDIDLRVVEVVPMPPPPEDPGKKSAGG [r13_839_TrROS] | 0.836 ± 0.056 kcal/mol | 2.82 ± 0.042 kcal/mol | 2.34 ± 0.11 kcal/mol
SMVVLPVRYPDLSPEEARAAVEALAAEIEAAVGAEVRVEVEVERAPDGTPVRVLVTATVVIRTAADALLLSA [r9_21_JUSTAS] | 0.946 ± 0.061 kcal/mol | 1.16 ± 0.068 kcal/mol | 1.09 ± 0.12 kcal/mol
SAGGPDELELVIVFPAEALGTGEGGEPYTAEDIAEAIKKELPKDEVEVEIAEIDEETGEIVVTVKVPSAGGS [r16_284_TrMRF] | 0.747 ± 0.13 kcal/mol | 0.449 ± 0.077 kcal/mol | 0.748 ± 0.23 kcal/mol
SAGGSAGGSAGYKPGEVVYIEVEDPETGKSLKVPVKVPENMTPEQAKKLAEEAAKKYREGSAGGSAGGSAGG [r11_355_TrMRF] | 1.57 ± 0.082 kcal/mol | 2.22 ± 0.095 kcal/mol | 2.02 ± 0.16 kcal/mol
SAGGSASAEEAARAFVAAHPDRALVEVEIERSFIPEKGVEVVTLTVTLAFPDGSRRVVPVTVTRPRSAGGSA [r15_266_JUSTAS] | 1.11 ± 0.044 kcal/mol | 1.06 ± 0.044 kcal/mol | 1.13 ± 0.071 kcal/mol
